Data reported in article PMC5746248, “Comparative analysis of the end-joining activity of several DNA ligases”.

Tests used:
Assay in all cases: fluorescence anisotropy; 10 mM MgCl2, 1 mM ATP; T4 DNA ligase reaction buffer: 50 mM Tris-HCl pH 7.5 (25°C), 1 mM ATP, 10 mM MgCl2; 750 pM-4 nM DNA; anisotropy temperature not stated
PBCV1-Nterm-T4NTD = PBCV1-Nterm-T4NTD (bacteriophage T4 (T4NTD) / Paramecium …, UniProt P00970 1-135+O41026:1-298, internal_change); conditions: protein: recombinant; tags: N-terminal His6; label: 3'-FAM on one strand; blunt
T4 DNA ligase = molecular target: T1, T4 DNA ligase (bacteriophage T4, UniProt P00970 1-487); conditions: label: 3'-FAM on one strand; blunt
T1 sequence: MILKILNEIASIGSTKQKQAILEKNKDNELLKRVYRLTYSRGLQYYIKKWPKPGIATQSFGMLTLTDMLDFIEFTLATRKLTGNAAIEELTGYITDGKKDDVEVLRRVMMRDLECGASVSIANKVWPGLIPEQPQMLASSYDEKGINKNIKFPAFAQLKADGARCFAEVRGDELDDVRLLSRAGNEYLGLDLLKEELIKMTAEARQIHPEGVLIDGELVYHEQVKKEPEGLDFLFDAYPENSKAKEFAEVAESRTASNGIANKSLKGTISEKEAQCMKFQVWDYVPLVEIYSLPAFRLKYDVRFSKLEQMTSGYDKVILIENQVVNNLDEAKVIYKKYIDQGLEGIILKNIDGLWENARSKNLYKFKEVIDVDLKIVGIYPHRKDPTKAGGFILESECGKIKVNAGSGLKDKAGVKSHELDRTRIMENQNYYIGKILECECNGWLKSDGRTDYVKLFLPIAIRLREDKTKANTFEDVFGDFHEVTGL

hLig3 ZnF = molecular target: T2, hLig3 ZnF (human, UniProt P49916 88-206); conditions: protein: recombinant; tags: His10; label: 3'-FAM on one strand; blunt
T2 sequence: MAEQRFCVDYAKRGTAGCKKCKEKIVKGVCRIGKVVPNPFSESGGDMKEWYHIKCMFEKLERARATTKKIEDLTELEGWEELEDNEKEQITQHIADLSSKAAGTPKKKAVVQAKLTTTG

Sso7d = molecular target: T3, Sso7d (Sulfolobus solfataricus, UniProt P39476 2-64); conditions: protein: recombinant; tags: N-terminal His6; label: 3'-FAM on one strand; blunt
T3 sequence: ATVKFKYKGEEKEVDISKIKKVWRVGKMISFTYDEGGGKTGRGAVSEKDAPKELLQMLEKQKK

[1] = molecular target: T4, hLig3 (human DNA ligase III beta) (human, UniProt P49916-2 88-949); conditions: protein: recombinant; tags: N-terminal His6; label: 3'-FAM on one strand; blunt
T4 sequence: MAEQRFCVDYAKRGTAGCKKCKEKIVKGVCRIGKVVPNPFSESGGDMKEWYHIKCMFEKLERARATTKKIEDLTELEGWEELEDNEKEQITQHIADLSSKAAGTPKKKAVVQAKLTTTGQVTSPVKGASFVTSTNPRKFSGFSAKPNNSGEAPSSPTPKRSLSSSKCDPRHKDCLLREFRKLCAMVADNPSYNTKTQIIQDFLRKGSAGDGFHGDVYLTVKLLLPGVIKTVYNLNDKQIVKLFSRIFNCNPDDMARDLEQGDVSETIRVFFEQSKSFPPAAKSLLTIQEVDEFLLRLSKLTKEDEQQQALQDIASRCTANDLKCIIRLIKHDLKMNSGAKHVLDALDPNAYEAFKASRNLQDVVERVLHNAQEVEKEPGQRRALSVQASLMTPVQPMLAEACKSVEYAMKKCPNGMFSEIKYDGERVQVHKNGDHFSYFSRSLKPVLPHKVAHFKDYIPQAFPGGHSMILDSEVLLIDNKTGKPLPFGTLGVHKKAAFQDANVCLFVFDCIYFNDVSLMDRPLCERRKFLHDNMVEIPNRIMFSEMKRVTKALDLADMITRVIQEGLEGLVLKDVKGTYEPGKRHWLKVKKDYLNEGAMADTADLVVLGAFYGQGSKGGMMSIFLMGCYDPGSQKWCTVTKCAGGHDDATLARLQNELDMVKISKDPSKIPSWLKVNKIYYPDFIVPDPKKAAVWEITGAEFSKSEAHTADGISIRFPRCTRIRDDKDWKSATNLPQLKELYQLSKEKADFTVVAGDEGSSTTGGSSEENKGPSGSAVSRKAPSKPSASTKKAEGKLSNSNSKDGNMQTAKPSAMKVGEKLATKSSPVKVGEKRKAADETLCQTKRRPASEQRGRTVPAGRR

T3 DNA ligase = molecular target: T5, T3 DNA ligase (bacteriophage T3, UniProt P07717 1-346); conditions: label: 3'-FAM on one strand; blunt
T5 sequence: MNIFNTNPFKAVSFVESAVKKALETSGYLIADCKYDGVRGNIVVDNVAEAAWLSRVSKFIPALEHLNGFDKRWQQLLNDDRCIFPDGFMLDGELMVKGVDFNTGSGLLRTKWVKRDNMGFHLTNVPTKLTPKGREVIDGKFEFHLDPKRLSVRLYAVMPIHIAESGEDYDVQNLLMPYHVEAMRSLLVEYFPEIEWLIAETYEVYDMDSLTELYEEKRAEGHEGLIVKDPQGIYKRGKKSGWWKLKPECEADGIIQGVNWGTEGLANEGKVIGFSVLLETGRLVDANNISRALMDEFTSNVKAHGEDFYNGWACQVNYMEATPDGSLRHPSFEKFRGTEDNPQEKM

PBCV1 DNA ligase = molecular target: T6, PBCV1 DNA ligase (Paramecium bursaria chlorella virus 1, UniProt O41026 1-298); conditions: protein: recombinant; label: 3'-FAM on one strand; blunt
T6 sequence: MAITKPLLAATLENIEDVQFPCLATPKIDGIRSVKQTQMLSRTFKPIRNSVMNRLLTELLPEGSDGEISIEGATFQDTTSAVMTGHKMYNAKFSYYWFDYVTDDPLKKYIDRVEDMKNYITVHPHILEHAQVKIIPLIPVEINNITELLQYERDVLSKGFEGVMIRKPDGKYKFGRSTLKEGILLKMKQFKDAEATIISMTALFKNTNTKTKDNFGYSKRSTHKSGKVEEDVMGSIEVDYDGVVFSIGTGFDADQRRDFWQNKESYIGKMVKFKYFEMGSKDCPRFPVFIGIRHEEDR

B1: Anisotropy 24mer dsDNA (dsDNA)
DNA 1: GATCGTCCTTGGTGATCATGCATC
DNA 2: GATGCATGATCACCAAGGACGATC
PBCV1-Nterm-T4NTD
  Kd: 243 ± 39 nM
T4 DNA ligase
  Kd: 1900 ± 100 nM
hLig3 ZnF
  Kd: 21 ± 1 nM
Sso7d
  Kd: 430 ± 60 nM
[1]
  Kd: 3.8 ± 0.2 nM
T3 DNA ligase
  Kd: 6400 ± 400 nM
PBCV1 DNA ligase
  Kd: 990 ± 80 nM
